± gives the uncertainty stated by the source.
Assay: protein stability index of a GFP-peptide fusion (yeast GPS) (PSI 1-4); higher = more stable; sorted into four equal gates, so the index is relative within each strain
Conditions: pdr5∆
Procedure, shortened: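 Mid-log yeast cultures in leucine-free medium, carrying a pooled plasmid library, were sorted into four equal gates by their GFP/Cherry fluorescence ratio. Each plasmid expressed Cherry along with GFP fused upstream of a tiled 17-residue yeast protein peptide. Plasmids recovered from each gate were PCR-amplified and Illumina-sequenced, with reads assigned to strains by barcodes. The protein stability index was obtained by summing each gate's read frequency weighted by its gate number.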

Sequence	protein stability index
LLAVAIAASYHYPEIED [RPP0]	2.11 ± 0.11
LLENFANFKTSKKYQLA [RRP6]	2.57 ± 0.2

Same assay, conditions: san1∆

Sequence	protein stability index
LELVNTPLTENILIASL [YCG1]	1.93 ± 0.083
LEMLKPCVEDGFVIQDR [RPB2]	3.19 ± 0.19
LEQFMERNNIGEICKNY [YDL116W/NUP84]	2.72 ± 0.14
LEQMELSILKGDYSQAT [RPN5]	2.94 ± 0.11
LESWWLVLGEVSKKELY [BRR2]	1.11 ± 0.17
LFGAKPQNTTATTGGLF [YGR119C/NUP57]	2.97 ± 0.12
LFGMCESLYEPNLEPED [PUP3]	3.32 ± 0.081
LFHFEEDEGEELTDEYL [PRP8]	3.44 ± 0.06
LFKALKVILNERGGKFH [RGR1]	2.17 ± 0.094
LFKKFNNDFKLSIDKVL [RET1]	2.15 ± 0.15
LFLIIQCYKIYDLVILK [YMR129W/POM152]	1.16 ± 0.085
LFLRGDSVIVVLKTPVE [SMD2]	2.78 ± 0.083
LFPEQQTKEIKTERVED [RPL6B]	3.46 ± 0.061
LFSSRRLQAKRLKDVEW [RMP1]	3.1 ± 0.079
LGGPITKESQPTIEEDL [FAS2]	2.77 ± 0.18
LGILKKKRFDEFMAGFN [SMC4]	1.88 ± 0.19
LGKAQNWAKFTATASLG [RPN2]	2.18 ± 0.069
LGKKKNVKEEETVAKSK [RPS8A]	3.335 ± 0.031
LGKTIQTISLLTYLYEM [SNF2]	2.47 ± 0.081
LGLAKSVHHARVLITQR [RPS9A]	2.61 ± 0.17
LGLFIHKISFSGTKSEV [YJL039C/NUP192]	1.88 ± 0.085
LGNIASSFYINHASMDV [BRR2]	2.88 ± 0.1
LGPLFKKIVDDTIMENP [IRR1]	2.44 ± 0.13
LGQERATDLAGPANNPN [PRP8]	2.95 ± 0.053
LGQYVQAHTLYNSVRPF [PRE10]	2.78 ± 0.11

Sequence	protein stability index
LGSGSLAAMAVLESHWK [PUP1]	2.64 ± 0.2
LGSLTVEDYLSSVTSDS [RPC82]	2.19 ± 0.22
LGSQSKSDEGGSYLCTS [YOR098C/NUP1]	3.14 ± 0.069
LGSSEAENLLQLKTGLA [YGL172W/NUP49]	2.98 ± 0.085
LGVTYSSPTLATGFGAH [PRE4]	2.48 ± 0.087
LGYTHIAINFTVNHSEK [RPP1]	1.56 ± 0.062
LHCCIQLLMGDIPELSF [RPN3]	1.78 ± 0.065
LHEKYLTEGGSILEEKI [SMC1]	3.01 ± 0.061
LHNFESVAPTKQREIVK [NUT1]	2.7 ± 0.053
LHNIWSNGLLSIVLLLL [YML103C/NUP188]	1.5 ± 0.14
LHNLNEYQIVYYNPQAG [RGR1]	2.1 ± 0.11
LHYLKKFKHIDDKYGRK [SRP72]	3.07 ± 0.055
LIERYYPKLTLDFQTNK [RPS17A]	3.02 ± 0.045
LIIDDPSKGQSLSKISQ [RPP1]	3.04 ± 0.055
LIIDGQIIFGVVEKKTV [RPO21]	1.2 ± 0.2
LIIIEKKQKLIEEQDKK [ITC1]	2.96 ± 0.17
LIIQKIPSLQNNIEENL [ECM29]	2.66 ± 0.065
LILGLNTSIAQFDIQSP [YML103C/NUP188]	2.29 ± 0.071
LINGHRAPQQSVLQLFQ [SMC2]	2.5 ± 0.063
LIPEDKRDQYLKSASKE [RPL28]	1.95 ± 0.18
LIPFIVKQVLLSVEIGV [NUT1]	1.56 ± 0.059
LIRNVGTNTYRLGEWSK [POP1]	1.12 ± 0.28
LISDQLLEFFELVFSKG [YML103C/NUP188]	3.1 ± 0.066
LITVMEKSPDPTIRSNA [YCS4]	2.34 ± 0.053
LIYVNPFMLQWGIPLIK [FAS1]	1.13 ± 0.14

Sequence	protein stability index
LKAVTVEAGMIALRNGQ [RPT5]	2.51 ± 0.17
LKDLNLTVSIKIALMNI [RGR1]	1.73 ± 0.077
LKELRIDNSPQAISYLH [GRR1]	2.08 ± 0.057
LKESVEGEFNGDTIELA [PRE8]	3.4 ± 0.072
LKGIQEFGADWYKVAKN [SWI3]	3.37 ± 0.043
LKILKQVMEEKLDENNA [PUP2]	2.8 ± 0.23
LKISGEEESLHVFQYAN [RPC37]	2.27 ± 0.14
LKNEGIDLDHKRFLILQ [SMC4]	2.15 ± 0.12
LKNKREIYRISFQLSKI [RPS9B]	3.54 ± 0.062
LKNPEIFQRVGIKPPKG [RPT4]	2.45 ± 0.12
LKNTMQYLTNFSRFRDQ [RPB4]	3.1 ± 0.087
LKPSMSVALHRHSNALV [RPT3]	2.51 ± 0.15
LKQEIDRGLSIKLNGST [SNU114]	3 ± 0.099
LKQNAIRARIPFYGSYT [SRP54]	2.5 ± 0.087
LKRLAWQYIVIDEAHRI [ISW2]	2.45 ± 0.077
LKRNSWPKTRGVAMNPV [RPL2A]	3.2 ± 0.16
LKSAIRDEIAKNTELSY [RPN12]	1.51 ± 0.097
LKTADNRDRSFQLLEPL [PGD1]	3.38 ± 0.039
LKTDGVRAVSITSFGFG [FAS2]	1.5 ± 0.11
LKTLVQGPRSYFLDVKC [RPS27A]	2.72 ± 0.12
LKTNGKQNNKDFRTRYI [MTW1]	2.52 ± 0.081
LKYLSVEEVIKLVRDSF [PRE7]	2.72 ± 0.12
LLAVAIAASYHYPEIED [RPP0]	1.73 ± 0.13
LLENFANFKTSKKYQLA [RRP6]	2.27 ± 0.21

Same assay, conditions: ubr1∆

Sequence	protein stability index
LELVNTPLTENILIASL [YCG1]	2.27 ± 0.037
LEMLKPCVEDGFVIQDR [RPB2]	3.23 ± 0.077
LEQFMERNNIGEICKNY [YDL116W/NUP84]	2.44 ± 0.069
LEQMELSILKGDYSQAT [RPN5]	2.64 ± 0.062
LFGAKPQNTTATTGGLF [YGR119C/NUP57]	2.59 ± 0.089
LFGMCESLYEPNLEPED [PUP3]	3.27 ± 0.1
LFHFEEDEGEELTDEYL [PRP8]	3 ± 0.12
LFKALKVILNERGGKFH [RGR1]	2.64 ± 0.059
LFKKFNNDFKLSIDKVL [RET1]	2.67 ± 0.093
LFKRDCNQMENLLESIT [YCS4]	2.38 ± 0.22
LFLIIQCYKIYDLVILK [YMR129W/POM152]	1.16 ± 0.044
LFLRGDSVIVVLKTPVE [SMD2]	2.38 ± 0.14
LFPEQQTKEIKTERVED [RPL6B]	3.38 ± 0.063
LFSSRRLQAKRLKDVEW [RMP1]	1.68 ± 0.065
LGGPITKESQPTIEEDL [FAS2]	2.96 ± 0.069
LGILKKKRFDEFMAGFN [SMC4]	1.87 ± 0.078
LGKAQNWAKFTATASLG [RPN2]	2.28 ± 0.065
LGKKKNVKEEETVAKSK [RPS8A]	3.25 ± 0.039
LGKTIQTISLLTYLYEM [SNF2]	2.38 ± 0.076
LGLFIHKISFSGTKSEV [YJL039C/NUP192]	2.12 ± 0.052
LGNIASSFYINHASMDV [BRR2]	3.27 ± 0.15
LGPLFKKIVDDTIMENP [IRR1]	2.82 ± 0.063
LGQERATDLAGPANNPN [PRP8]	3.17 ± 0.057
LGQYVQAHTLYNSVRPF [PRE10]	2.65 ± 0.053

Sequence	protein stability index
LGSGSLAAMAVLESHWK [PUP1]	3.69 ± 0.18
LGSLTVEDYLSSVTSDS [RPC82]	3.2 ± 0.074
LGSQSKSDEGGSYLCTS [YOR098C/NUP1]	2.71 ± 0.081
LGSSEAENLLQLKTGLA [YGL172W/NUP49]	2.5 ± 0.2
LGVTYSSPTLATGFGAH [PRE4]	1.62 ± 0.12
LGYTHIAINFTVNHSEK [RPP1]	1.41 ± 0.042
LHCCIQLLMGDIPELSF [RPN3]	1.71 ± 0.042
LHDTQIEGKLHMATALQ [RPN10]	2.38 ± 0.23
LHEKYLTEGGSILEEKI [SMC1]	3.19 ± 0.094
LHNFESVAPTKQREIVK [NUT1]	2.6 ± 0.044
LHNIWSNGLLSIVLLLL [YML103C/NUP188]	1.54 ± 0.12
LHYLKKFKHIDDKYGRK [SRP72]	2.85 ± 0.041
LIERYYPKLTLDFQTNK [RPS17A]	2.74 ± 0.053
LIIDDPSKGQSLSKISQ [RPP1]	3.02 ± 0.056
LIIDGQIIFGVVEKKTV [RPO21]	1.54 ± 0.07
LIIIEKKQKLIEEQDKK [ITC1]	2.89 ± 0.084
LIIQKIPSLQNNIEENL [ECM29]	2.98 ± 0.071
LILGLNTSIAQFDIQSP [YML103C/NUP188]	2.6 ± 0.044
LINGHRAPQQSVLQLFQ [SMC2]	2.42 ± 0.051
LIPEDKRDQYLKSASKE [RPL28]	3.36 ± 0.098
LIPFIVKQVLLSVEIGV [NUT1]	1.74 ± 0.036
LISDQLLEFFELVFSKG [YML103C/NUP188]	2.9 ± 0.057
LITVMEKSPDPTIRSNA [YCS4]	2.57 ± 0.038
LIYVNPFMLQWGIPLIK [FAS1]	1.65 ± 0.064

Sequence	protein stability index
LKDLNLTVSIKIALMNI [RGR1]	1.21 ± 0.06
LKELRIDNSPQAISYLH [GRR1]	2.4 ± 0.034
LKESVEGEFNGDTIELA [PRE8]	3.2 ± 0.073
LKGIQEFGADWYKVAKN [SWI3]	3.34 ± 0.057
LKISGEEESLHVFQYAN [RPC37]	2.41 ± 0.071
LKLEYYNLLVKISLHKR [RPN5]	1.13 ± 0.084
LKNEGIDLDHKRFLILQ [SMC4]	2.84 ± 0.068
LKNKREIYRISFQLSKI [RPS9B]	3.38 ± 0.12
LKNPEIFQRVGIKPPKG [RPT4]	2.31 ± 0.18
LKNTMQYLTNFSRFRDQ [RPB4]	3.19 ± 0.074
LKPSMSVALHRHSNALV [RPT3]	2.53 ± 0.22
LKQEIDRGLSIKLNGST [SNU114]	2.88 ± 0.09
LKQNAIRARIPFYGSYT [SRP54]	2.89 ± 0.062
LKRLAWQYIVIDEAHRI [ISW2]	1.13 ± 0.09
LKRNSWPKTRGVAMNPV [RPL2A]	2.83 ± 0.085
LKSAIRDEIAKNTELSY [RPN12]	2.46 ± 0.056
LKTADNRDRSFQLLEPL [PGD1]	3.18 ± 0.074
LKTDGVRAVSITSFGFG [FAS2]	1.41 ± 0.05
LKTLVQGPRSYFLDVKC [RPS27A]	2.99 ± 0.075
LKTNGKQNNKDFRTRYI [MTW1]	2.51 ± 0.059
LKYLSVEEVIKLVRDSF [PRE7]	3.08 ± 0.078
LLAVAIAASYHYPEIED [RPP0]	1.91 ± 0.08
LLENFANFKTSKKYQLA [RRP6]	2.33 ± 0.17

Source: the supplement of paper PMC9732359
